Reference: the supplement of paper PMC11246515
± gives the standard deviation of the averaged measurements.

Assay: total protein half-life in vivo (active degradation + dilution); higher = more stable protein
[1] = wild type E. coli NCM3722, growth: P-lim chemostat, doubling time 6 h
[2] = E. coli NCM3722 delta-clpP delta-lon delta-hslV, growth: N-lim chemostat, doubling time 6 h
[3] = E. coli NCM3722 delta-clpP, growth: N-lim chemostat, doubling time 6 h
[4] = E. coli NCM3722 delta-hslV, growth: N-lim chemostat, doubling time 6 h
[5] = E. coli NCM3722 delta-lon, growth: N-lim chemostat, doubling time 6 h
[6] = E. coli NCM3722 delta-smpB, growth: N-lim chemostat, doubling time 6 h
[7] = wild type E. coli NCM3722, growth: C-lim chemostat, doubling time 3 h
[8] = wild type E. coli NCM3722, growth: C-lim chemostat, doubling time 6 h
[9] = wild type E. coli NCM3722, growth: C-lim chemostat, doubling time 12 h
[10] = wild type E. coli NCM3722, growth: N-lim chemostat, doubling time 6 h
[11] = wild type E. coli NCM3722, growth: N-lim chemostat, doubling time 12 h
[12] = wild type E. coli NCM3722, growth: P-lim chemostat, doubling time 12 h

MSLAKASLWTAASTLVKIGAGLLVGKLLAVSFGPAGLGLAANFRQLITVLGVLAGAGIFNGVTKYVAQYHDNPQQLRRVVGTSSAMVLGFSTLMALVFVLAAAPISQGLFGNTDYQGLVRLVALVQMGIAWGNLLLALMKGFRDAAGNALSLIVGSLIGVLAYYVSYRLGGYEGALLGLALIPALVVIPAAIMLIKRGVIPLSYLKPSWDNGLAGQLSKFTLMALITSVTLPVAYIMMRKLLAAQYSWDEVGIWQGVSSISDAYLQFITASFSVYLLPTLSRLTEKRDITREVVKSLKFVLPAVAAASFTVWLLRDFAIWLLLSNKFTAMRDLFAWQLVGDVLKVGAYVFGYLVIAKASLRFYILAEVSQFTLLMVFAHWLIPAHGALGAAQAYMATYIVYFSLCCGVFLLWRRRA [P0AAA7]
total protein half-life in vivo [1]: 5.48 h

MKHSVSVTCCALLVSSISLSYAAEVPSGTVLAEKQELVRHIKDEPASLDPAKAVGLPEIQVIRDLFEGLVNQNEKGEIVPGVATQWKSNDNRIWTFTLRDNAKWADGTPVTAQDFVYSWQRLVDPKTLSPFAWFAALAGINNAQAIIDGKATPDQLGVTAVDAHTLKIQLDKPLPWFVNLTANFAFFPVQKANVESGKEWTKPGNLIGNGAYVLKERVVNEKLVVVPNTHYWDNAKTVLQKVTFLPINQESAATKRYLAGDIDITESFPKNMYQKLLKDIPGQVYTPPQLGTYYYAFNTQKGPTADQRVRLALSMTIDRRLMTEKVLGTGEKPAWHFTPDVTAGFTPEPSPFEQMSQEELNAQAKTLLSAAGYGPQKPLKLTLLYNTSENHQKIAIAVASMWKKNLGVDVKLQNQEWKTYIDSRNTGNFDVIRASWVGDYNEPSTFLTLLTSTHSGNISRFNNPAYDKVLAQASTENTVKARNADYNAAEKILMEQAPIAPIYQYTNGRLIKPWLKGYPINNPEDVAYSRTMYIVKH
total protein half-life in vivo [2]: 5.12 ± 0.18 h | total protein half-life in vivo [3]: 5.6 ± 0.17 h | total protein half-life in vivo [4]: 6.96 ± 0.47 h | total protein half-life in vivo [5]: 6.18 ± 0.087 h | total protein half-life in vivo [6]: 5.63 ± 0.21 h | total protein half-life in vivo [7]: 3.26 ± 0.29 h | total protein half-life in vivo [8]: 6.21 ± 0.43 h | total protein half-life in vivo [9]: 10.1 ± 0.25 h | total protein half-life in vivo [10]: 6.41 ± 0.44 h | total protein half-life in vivo [11]: 12.1 ± 0.92 h | total protein half-life in vivo [1]: 5.86 ± 0.16 h | total protein half-life in vivo [12]: 12.4 ± 1.1 h

MTNITKRSLVAAGVLAALMAGNVALAADVPAGVTLAEKQTLVRNNGSEVQSLDPHKIEGVPESNISRDLFEGLLVSDLDGHPAPGVAESWDNKDAKVWTFHLRKDAKWSDGTPVTAQDFVYSWQRSVDPNTASPYASYLQYGHIAGIDEILEGKKPITDLGVKAIDDHTLEVTLSEPVPYFYKLLVHPSTSPVPKAAIEKFGEKWTQPGNIVTNGAYTLKDWVVNERIVLERSPTYWNNAKTVINQVTYLPIASEVTDVNRYRSGEIDMTNNSMPIELFQKLKKEIPDEVHVDPYLCTYYYEINNQKPPFNDVRVRTALKLGMDRDIIVNKVKAQGNMPAYGYTPPYTDGAKLTQPEWFGWSQEKRNEEAKKLLAEAGYTADKPLTINLLYNTSDLHKKLAIAASSLWKKNIGVNVKLVNQEWKTFLDTRHQGTFDVARAGWCADYNEPTSFLNTMLSNSSMNTAHYKSPAFDSIMAETLKVTDEAQRTALYTKAEQQLDKDSAIVPVYYYVNARLVKPWVGGYTGKDPLDNTYTRNMYIVKH
total protein half-life in vivo [2]: 5.05 ± 0.41 h | total protein half-life in vivo [3]: 5.96 ± 0.98 h | total protein half-life in vivo [4]: 6.62 ± 0.85 h | total protein half-life in vivo [5]: 6.25 ± 0.66 h | total protein half-life in vivo [6]: 6.01 ± 0.075 h | total protein half-life in vivo [7]: 3.13 ± 0.1 h | total protein half-life in vivo [8]: 6.215 ± 0.047 h | total protein half-life in vivo [9]: 12.7 ± 1.9 h | total protein half-life in vivo [10]: 6.22 ± 0.13 h | total protein half-life in vivo [11]: 12 ± 0.33 h | total protein half-life in vivo [1]: 6.03 ± 0.071 h | total protein half-life in vivo [12]: 12.3 ± 0.35 h

MFGYRSNVPKVRLTTDRLVVRLVHDRDAWRLADYYAENRHFLKPWEPVRDESHCYPSGWQARLGMINEFHKQGSAFYFGLFDPDEKEIIGVANFSNVVRGSFHACYLGYSIGQKWQGKGLMFEALTAAIRYMQRTQHIHRIMANYMPHNKRSGDLLARLGFEKEGYAKDYLLIDGQWRDHVLTALTTPDWTPGR [P0A948]
total protein half-life in vivo [2]: 4.56 ± 0.93 h | total protein half-life in vivo [3]: 3.52 ± 0.15 h | total protein half-life in vivo [4]: 3.89 ± 0.49 h | total protein half-life in vivo [5]: 4.189 ± 0.017 h | total protein half-life in vivo [6]: 4.098 ± 0.021 h | total protein half-life in vivo [7]: 3.07 ± 0.059 h | total protein half-life in vivo [8]: 5.02 ± 0.078 h | total protein half-life in vivo [9]: 8.98 ± 0.43 h | total protein half-life in vivo [10]: 3.57 ± 0.065 h | total protein half-life in vivo [11]: 5.92 ± 0.15 h | total protein half-life in vivo [1]: 5.38 ± 0.41 h

MALQNEKNSRYLLRDWKPENPAFWENKGKHIARRNLWISVSCLLLAFCVWMLFSAVTVNLNKIGFNFTTDQLFLLTALPSVSGALLRVPYSFMVPIFGGRRWTVFSTAILIIPCVWLGIAVQNPNTPFGIFIVIALLCGFAGANFASSMGNISFFFPKAKQGSALGINGGLGNLGVSVMQLVAPLVIFVPVFAFLGVNGVPQADGSVMSLANAAWIWVPLLAIATIAAWSGMNDIASSRASIADQLPVLQRLHLWLLSLLYLATFGSFIGFSAGFAMLAKTQFPDVNILRLAFFGPFIGAIARSVGGAISDKFGGVRVTLINFIFMAIFSALLFLTLPGTGSGNFIAFYAVFMGLFLTAGLGSGSTFQMIAVIFRQITIYRVKMKGGSDEQAHKEAVTETAAALGFISAIGAVGGFFIPQAFGMSLNMTGSPVGAMKVFLIFYIVCVLLTWLVYGRRKFSQK
total protein half-life in vivo [2]: 6.73 ± 1.1 h | total protein half-life in vivo [3]: 6.58 ± 0.92 h | total protein half-life in vivo [4]: 6.57 ± 1.3 h | total protein half-life in vivo [5]: 6.52 ± 0.52 h | total protein half-life in vivo [6]: 6.07 ± 0.48 h | total protein half-life in vivo [7]: 2.53 h | total protein half-life in vivo [8]: 6.34 ± 0.088 h | total protein half-life in vivo [9]: 13.7 ± 1.8 h | total protein half-life in vivo [10]: 4.92 ± 0.76 h | total protein half-life in vivo [11]: 10.8 ± 2.6 h | total protein half-life in vivo [1]: 7.05 h | total protein half-life in vivo [12]: 12.86 ± 0.088 h

MHRQSFFLVPLICLSSALWAAPATVNVEVLQDKLDHPWALAFLPDNHGMLITLRGGELRHWQAGKGLSAPLSGVPDVWAHGQGGLLDVVLAPDFAQSRRIWLSYSEVGDDGKAGTAVGYGRLSDDLSKVTDFRTVFRQMPKLSTGNHFGGRLVFDGKGYLFIALGENNQRPTAQDLDKLQGKLVRLTDQGEIPDDNPFIKESGARAEIWSYGIRNPQGMAMNPWSNALWLNEHGPRGGDEINIPQKGKNYGWPLATWGINYSGFKIPEAKGEIVAGTEQPVFYWKDSPAVSGMAFYNSDKFPQWQQKLFIGALKDKDVIVMSVNGDKVTEDGRILTDRGQRIRDVRTGPDGYLYVLTDESSGELLKVSPRN
total protein half-life in vivo [2]: 1.95 ± 0.037 h | total protein half-life in vivo [3]: 2.22 ± 1.1 h | total protein half-life in vivo [4]: 1.44 ± 0.036 h | total protein half-life in vivo [6]: 1.43 ± 0.033 h | total protein half-life in vivo [7]: 1.63 ± 0.43 h | total protein half-life in vivo [8]: 4.09 h | total protein half-life in vivo [9]: 5.83 ± 1.6 h | total protein half-life in vivo [10]: 2.13 h | total protein half-life in vivo [12]: 6.77 h

MEGSDFLLAGVLFLFAAVAAVPLASRLGIGAVLGYLLAGIAIGPWGLGFISDVDEILHFSELGVVFLMFIIGLELNPSKLWQLRRSIFGVGAAQVLLSAALLAGLLMLTDFAWQAAVVGGIGLAMSSTAMALQLMREKGMNRSESGQLGFSVLLFQDLAVIPALALVPLLAGSADEHFDWMKVGMKVLAFVGMLIGGRYLLRPVFRFIAASGVREVFTAATLLLVLGSALFMDALGLSMALGTFIAGVLLAESEYRHELETAIDPFKGLLLGLFFISVGMSLNLGVLYTHLLWVVISVVVLVAVKILVLYLLARLYGVRSSERMQFAGVLSQGGEFAFVLFSTASSQRLFQGDQMALLLVTVTLSMMTTPLLMKLVDKWLSRQFNGPEEEDEKPWVNDDKPQVIVVGFGRFGQVIGRLLMANKMRITVLERDISAVNLMRKYGYKVYYGDATQVDLLRSAGAEAAESIVITCNEPEDTMKLVEICQQHFPHLHILARARGRVEAHELLQAGVTQFSRETFSSALELGRKTLVTLGMHPHQAQRAQLHFRRLDMRMLRELIPMHADTVQISRAREARRELEEIFQREMQQERRQLDGWDEFE
total protein half-life in vivo [2]: 7.22 ± 0.56 h | total protein half-life in vivo [5]: 6.81 ± 1.1 h | total protein half-life in vivo [6]: 6.39 ± 1.5 h | total protein half-life in vivo [8]: 5.87 ± 0.17 h | total protein half-life in vivo [10]: 5.996 ± 0.021 h | total protein half-life in vivo [11]: 13.6 ± 2 h | total protein half-life in vivo [1]: 7.09 ± 1.1 h
